These results are taken from paper PMC9861681, “Preparation, Purification and Characterization of Antibacterial and ACE Inhibitory Peptides from Head Protein Hydrolysate of Kuruma Shrimp, Marsupenaeus japonicus” (Molecules, 2023).

In assay [1] the target is T1, angiotensin I-converting enzyme (ACE, EC 3.4.15.1) from rabbit lung (rabbit, UniProt P12822 34-1310).
T1 sequence (looked up): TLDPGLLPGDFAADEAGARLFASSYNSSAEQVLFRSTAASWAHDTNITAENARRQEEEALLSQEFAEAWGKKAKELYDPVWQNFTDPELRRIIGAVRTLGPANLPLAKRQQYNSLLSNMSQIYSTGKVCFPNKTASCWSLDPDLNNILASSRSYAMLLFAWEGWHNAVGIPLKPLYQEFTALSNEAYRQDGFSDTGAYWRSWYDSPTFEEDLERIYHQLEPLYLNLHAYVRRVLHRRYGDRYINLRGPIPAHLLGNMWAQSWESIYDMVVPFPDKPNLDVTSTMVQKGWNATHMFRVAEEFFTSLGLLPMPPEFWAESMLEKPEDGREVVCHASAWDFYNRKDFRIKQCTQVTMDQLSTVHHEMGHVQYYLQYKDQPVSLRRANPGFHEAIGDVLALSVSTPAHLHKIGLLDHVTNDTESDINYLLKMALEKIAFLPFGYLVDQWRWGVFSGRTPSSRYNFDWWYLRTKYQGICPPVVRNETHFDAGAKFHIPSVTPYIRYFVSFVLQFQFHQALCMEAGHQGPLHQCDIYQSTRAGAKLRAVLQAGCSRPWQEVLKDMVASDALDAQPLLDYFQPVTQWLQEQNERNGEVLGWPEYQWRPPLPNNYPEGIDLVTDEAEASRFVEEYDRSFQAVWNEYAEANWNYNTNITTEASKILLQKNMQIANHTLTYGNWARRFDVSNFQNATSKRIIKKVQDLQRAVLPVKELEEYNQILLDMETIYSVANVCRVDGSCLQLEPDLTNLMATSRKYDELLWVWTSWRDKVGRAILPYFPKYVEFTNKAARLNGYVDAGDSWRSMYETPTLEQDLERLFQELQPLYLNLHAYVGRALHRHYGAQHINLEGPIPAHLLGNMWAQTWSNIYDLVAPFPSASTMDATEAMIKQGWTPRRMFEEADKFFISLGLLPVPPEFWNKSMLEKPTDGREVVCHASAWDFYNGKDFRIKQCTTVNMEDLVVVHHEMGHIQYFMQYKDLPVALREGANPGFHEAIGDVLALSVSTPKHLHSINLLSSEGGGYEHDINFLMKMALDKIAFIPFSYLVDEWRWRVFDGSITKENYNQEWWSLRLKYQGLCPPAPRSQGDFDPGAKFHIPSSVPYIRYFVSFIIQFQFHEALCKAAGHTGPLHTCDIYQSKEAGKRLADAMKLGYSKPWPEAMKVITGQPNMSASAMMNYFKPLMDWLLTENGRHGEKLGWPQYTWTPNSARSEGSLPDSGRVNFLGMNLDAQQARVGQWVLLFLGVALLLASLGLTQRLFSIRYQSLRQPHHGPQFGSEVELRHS
The assay is described as follows: cell-based or functional assay.

For assay [2], the target named is T1, angiotensin I-converting enzyme (ACE, …). Nature of the assay: cell-based or functional assay. This is another data set of the same source.

Consider ARL [ACE inhibitory peptide Ala-Arg-Leu/Ile (ARL/I)], for which the “IC50 of ACE inhibitory activity (HHL substrate, hippuric acid at 228 nM)” value in assay [1] stood at 45 µg/mL. Besides, the “IC50 of ACE inhibitory activity, calculated from the molecular mass of ARL/I and Table 2” value in assay [2] is 126 µM.
